Assay results: the DeepSol protein solubility set

Test: soluble on expression in E. coli; label from the status in PepcDB or PDB records
With “METKYAFARQIIKEAGLFIKSKMSEQLDIQVKTQFDDLVTNVDQETQQLLMDRIHQTYPCDAILAEENDVRHPINQGNVWVIDPIDGTVNFIVQGSQFAVMIAYYEQGIGQFGLIYDVMADQLLAGGGDFEVTLNGDKLPAYQEKPLERSLIGCNAGMFARNDRNLAHLIAKTLGVRVYGGAGICMVKVMKQELLAYFSFIQPWDYAAAKVLGDKLGYVLLTIDGYEPDFQTRQKIMFVPKCQLTRIASFLTKDSAITLEDQ” the “soluble on expression in E. coli” value was “not soluble”. In the case of “MTGRLQNKVIVITGASSGIGEQVAMQVAEQGATPVLMARTEEKLKALADKIKETYNTPCYYYVLDVSEETEVQSVFSKVLQEVGRIDILVNNAGFGIFKTFEDASMDEVKDMFQVNVFGLVACTKAVLPYMVKRNEGHIINIASLAGKIATPKSSAYAATKHAVLGFTNSLRMELSSTNVFVTAINPGPIDTNFFEIADQSGTYVKNMGRYMLKPTYVAEQIVKSMQTKKREVNLPKWMGIGPKLYALFPGLFERVAGKSLSKK”, the “soluble on expression in E. coli” value is reported as “not soluble”. With “MAQASPPRPERVLGASSPEARPAQEALLLPTGVFQVAEKMEKRTCALCPKDVEYNVLYFAQSENIAAHENCLLYSSGLVECEDQDPLNPDRSFDVESVKKEIQRGRKLKCKFCHKRGATVGCDLKNCNKNYHFFCAKKDDAVPQSDGVRGIYKLLCQQHAQFPIIAQSAKFSGVKRKRGRKKPLSGNHVQPPETMKCNTFIRQVKEEHGRHTDATVKVPFLKKCKEAGLLNYLLEEILDKVHSIPEKLMDETTSESDYEEIGSALFDCRLFEDTFVNFQAAIEKKIHASQQRWQQLKEEIELLQDLKQTLCSFQENRDLMSSSTSISSLSY” the “soluble on expression in E. coli” value was “not soluble”. With “MDATISVVCYKSKTLSNGEHPLMLRISKDGKKKYQSLGISVNPKFWDFQKNKPKPKCPNLEYLQKIILDKKLELQKKMLEIKSDQKEYSAATLIEANEKLQVAKNVDCFYKEIIAQCEINNKCGNRLVYLNSYNSLKRFTNGKLEIPFNTINVAWLEKYEKWLRSNGNKETTISLMFRTLRSTYNKAIKERCAHLSDYPFQEYKISKFDTSTQKRAIAKTDMLKFTETSQPIGQKKYVELSKDIFIFSYLCGGINFTDIANLTQENIVNGRLHYIRQKTGKLIKIGIPQEAMQIIKKYTDESNG” the “soluble on expression in E. coli” value was “not soluble”. With “MGHHHHHHSHMRIVFDIGGSVLVPEKPDVDFITKLGYELTKISEDHEIAIVVGGGKVAREYIEVASKFNTNETFKDYLGIQITRANAMLLIAALKERAYPQVVSDFWEAWKAIQLKKIPVMGGTHPGHTTDAVSALLAEFLSADLLVVITNVDGVYTEDPKKNPNAKKIPKMKAKDLVDIVSREAGKAGVSTVIDPLAAKIIMRSGIKTYVIG” the “soluble on expression in E. coli” value was “not soluble”. With “MAHHHHHHMLKACLPRHLRVTPLLRVWAAEEDDANAPPTTFKNVKPGRLLRLWRQIRQRAWVAFTWDEEWTSPGSEGYLHQQRLEQVCFAPLSAYGMVPGSYCDPLLYNTKNTSPFRWHVANTSSDIVGHWYMEADEIFRIKDWQPKNPDDPTEMFPRPPQQILKWDETVDEHGNRTFRYKYRYDFMGPTGMWEAYPRYPFSHLYLNGQDHHGRAEGYGFKQGHLLRCSEEEEEVLRRIMEEEDKEWEMVKRTEVVQEPWSYPGKIRPQDFNGAVERAKARFREQIKQGKETDPSEDPDYDLVQAGEYVEPRDGPRAEWRHLWTSNRAKGEPLPYQVTFNDGITFEDNEEKPPVHPASHYEVKPKEAPYKKYEEQDTKEADEKQKKLKEQWEKSFEESISRHEKTVGDGKTSGGNSDSRSSGSAADSGAKEPPK” the “soluble on expression in E. coli” value was “not soluble”. In the case of “SKGWGWLALLLGVLLGTAWARRSQDLHCGACRALVDELEWEIARVDPKKTIQMGSFRINPDGSQSVVEVPYARSEAHLTELLEEVCDRMKEYGEQIDPSTHRKNYVRVVSRNGESSELDLQGIRIDSDISGTLKFACESIVEEYEDELIEFFSREADNVKDKLCSKRTDLCDHALHRSHDEL”, the “soluble on expression in E. coli” value is reported as “soluble”. In the case of “MSRLEIYSPEGLRLDGRRWNELRRFESSINTHPHAADGSSYMEQGNNKIITLVKGPKEPRLKSQMDTSKALLNVSVNITKFSKFERSKSSHKNERRVLEIQTSLVRMFEKNVMLNIYPRTVIDIEIHVLEQDGGIMGSLINGITLALIDAGISMFDYISGISVGLYDTTPLLDTNSLEENAMSTVTLGVVGKSEKLSLLLVEDKIPLDRLENVLAIGIAGAHRVRDLMDEELRKHAQKRVSNASAR”, the “soluble on expression in E. coli” value is reported as “not soluble”. For “EALSSKVQQLERSIGLKDLAMADLEQKVLEMEASTYDGVFIWKISDFPRKRQEAVAGRIPAIFSPAFYTSRYGYKMCLRIYLNGDGTGRGTHLSLFFVVMKGPNDALLRWPFNQKVTLMLLDQNNREHVIDAFRPDVTSSSFQRPVNDMNIASGCPLFCPVSKMEAKNSYVRDDAIFIKAIVDLTGL”, the “soluble on expression in E. coli” value was “soluble”. In the case of “MAMDTIAFAYMGGKEYEWLFFEVYDRVRRFYRDVRLPINIVYAGKIILPPGTLIRVETASGFVNMYSFEAVVEALYGKLVEMRDDVNDDSITKIFGITTFPIGSRDRYFDIYKKYLGIQVNVGDYHVLALSIKPFFTENKYLFIERVFKGVLHEIGHLYGLSHCHEDCVMNPPKDIKDWDLRTPTYCNTCLRKLKNKEELMPKLQLLEHHHHHH”, the “soluble on expression in E. coli” value is reported as “not soluble”. In the case of “MSLADGKTYKIGAAVYGLKGQFMQNWVRELKEHPAVKDGTVKITVFDGNYDALTQNNQIETMITQHYDAIIFVPIDTKAGVGTVARAMENDIPVIASNTRVAGNKVPYVGNDDVEGGRLQAQAMVDKLKGKGNVVIIQGPIGQSAQIDREKGELEVLSKHPDIKIIEKKTANWSRAEAQTLTEDWLNAHQNGGISGIISQNDDMALGALQAVKSRNLKPADVPITSIDGMPDAIQAAKKNEITTFLQDAQAQSQGALDVALRALAGKDYKPQSVIWQRYAKDVKWGDGTDEGHHHHHH”, the “soluble on expression in E. coli” value is reported as “soluble”. For “MGSDKIHHHHHHMPDTEEIARDSVVPPDVRRQAVNWLVELQSDIVTDETRDQWQKWRMSHPDHEYAWQQVEVFSRKLRGLPSPLAHAALTPPHSSSRRRAIKALTVLIFLGGGTWVAGEGRLWCWWPEDYCTGIGEHRAVTLSDGTGIELNSGSAITVNFDDTRRLIRLMNGEIMVTTAPDPRLANGIGAARPLLIETAQGILRAIGTRFTVRQFDVSQQGKSSVAVFEGAVEIQPITGRLRQLEVGQQAAFTRDGVIAVGMACEADTAWRQGMIVARDMPLIDFLAELGRHRSGWLSCDPAVAQLKVTGTYPLADIGKILAILQKTLPIDVQLFTRYWIRVGARQEDT”, the “soluble on expression in E. coli” value was “not soluble”. In the case of “MSRKRTENGSESGPATSHVPVDRFGFLKQEHANSPERFSKSKTTSSTDHDREERKVRKWRKMIGVGGSDWKHYVRRKPNVVRRRIRKGIPDCLRGLVWQLISGSRDLLLMNPGVYEQLVIYETSASELDIIRDISRTFPSHVFFQKRHGPGQRSLYNVLKAYSVYDRDVGYVQGMGFIAGLLLLYMSEEDAFWLLVALLKGAVHAPMEGLYHAGLPLVQQYLFQLESLVKELIPKLGEHFTQEMINPSMYASQWFITVFSYSFPFPLALRIWDVFLSEGVKIVFKVGLALLKYCQDELVSKVTV”, the “soluble on expression in E. coli” value is reported as “not soluble”. For “MGSDKIHHHHHHVQTPALIIVTGHPATGKTTLSQALATGLRLPLLSKDAFKEVMFDGLGWSDREWSRRVGATAIMMLYHTAATILQSGQSLIMESNFRVDLDTERMQNLHTIAPFTPIQIRCVASGDVLVERILSRIAQGARHPGHCDDRSPADLELVRSRGDIPPLPLGGPLLTVDTTFPEQIDMNAIVQWVRQHLQSGTAFL”, the “soluble on expression in E. coli” value was “not soluble”. With “MKKFLTQVFTWWNGQTLGTRFHTWRKGERVGEDEFGNVYYQGGKDSEGRTRRWVIFNGYSEASTIPPGWHGWMHHRVDTPPSKEDYRPREWQKPHLQNLTGSPLAYRPKGSIALPGAQPAERPRVTGEYDAWTPGNLEHHHHHH” the “soluble on expression in E. coli” value was “not soluble”. In the case of “VSVGTHPTFENSPSGTVLTSPPDGSAVDRATDAARRVVDALLRTDRGNANLERVAEELNSIAGHLEEHAPAVAERLIDMWNGEGVTRHDPVTGPENALAPPVVLEGLSDGSVRGTVTLTIPYQGPPGHVHGGVSALLLDHVLGVANAWGGKAGMTAQLSTRYHRPTPLFEPLTLTGKLMSVDGRKITTAGDIRTADGQVCVSVEGLFVDKTVPRPR”, the “soluble on expression in E. coli” value is reported as “soluble”. In the case of “KKRIQTEHCSYNRRRDYPLFKFIEYVLYWGHHYTVSISEKVQEELVKFMPRYQHKYRVVHNGVDLNRFPMTAKQAHDISEKATINIGMVGRLHEHKDHETLIHAIAKLPECYHLHLAGDGDRKASLQRLAQSLNVSPRVHFHGVVSDIPRFLSDMDIYVQSSHVE”, the “soluble on expression in E. coli” value is reported as “not soluble”. For “MGSDKIHHHHHHMFAGAPLSMLLAMPHRPYRDEADLTLLLRWLSDHAPTTFMHPGDLVWWLYQNTQVDPRQALELLFDGEAGGNELQGFGYCDGSWSVLQGLPDLPAHVWDEMVAAAATRAGGKLTVQPHEWDTPQLAALKRAGFELTDNRMVRLVREVQPCDQEAVALPAGFHFADMSGSEVSPEDRVKVHQDVWHPSKVTLEAYGRLQAAPLYRPDLDVMVVAPSGEIAAYALGWFDPGSRTGLMEPVGTRAAFRRQGLGKGLIREVTHRFAALGAQKVTIGSYEKNVAAVALYTSAGYAARGFWVDWETETAAMKEGQDSA”, the “soluble on expression in E. coli” value was “not soluble”. With “MELLLSKVTDAGIDPSSVSGEEAITLWEHIGRHIASTSREKAHCLIISAEYRREIKQLCDSIEELRQALELLSLPEDVEDILSVKASLSERLVEVGDYNSALTEYIASTNIAVEYGFIDEYVLAIIGMGNLCDAYGDHNRALRYYQKIDAIDHAISSRSLRLRYKLYMLACYISLKRVAEASELLGECEELSILVSDKNLAAQTHLYRAKLHRLQEEYSEALLSISSIKYTTGSATTYWLSTMVKIETAYCLNGVGHTSLANLLLESIGKRIKKHSSPILAKRFYNAMSKVSASQGQFQQALSCEKRAFRIESDLIKHIPISELGAAQLRRLSRFELQLKLILSEIENKEL” the “soluble on expression in E. coli” value was “not soluble”. In the case of “MSTTRKLILANIHGVDKPGVTAELTAILAKHNAFILDIGQADIHNNLSLGILFQTDESHSGSILKDLLFKSYELDVTVRFEPITEEAYSEWVGMQGRNRYIITVVARKITAEMIAGIARSSAEQGLNIDDIKRLTGRIPLNETDRSPKASVEFSMRGTPTDIEKLQRNFMEMASQLNMDISFQRESMFR”, the “soluble on expression in E. coli” value is reported as “not soluble”. In the case of “MKVVGLDLGGTKIAAGVFDGKRLLSKVVVPTPKEGGERVAEALAEAAERAEREAGVRGEAIGLGTPGPLDFRRGVIRFAPNIPGVQDFPIRRILEEATGRPVFLENDANAAALAEHHLGAAQGEESSLYLTVSTGIGGGVVLGGRVLRGERGQGGELGHLTLLPGGPACGCGLEGCLEALAAGRALERDATYAFQRPVDTRELFRLFQAGDPKAERLVLQAARYVGIGLASLVKAFDPGVVVLGGGVALNAPEGYWEALLEAYRRYLQGWEAPPLRRARLGAEAGLLGAALTAYLEVKDGSG”, the “soluble on expression in E. coli” value is reported as “soluble”. For “MAQAEEINVATVNNGDMIIMQKLSSAWEKETGNKINWIVLEENVLRERVTTDIATNGGQFDIMTIGGYEAPIWGKQGWLAPVDDLGDDYDYADLLDPIKKGLTVDGKLYAVPFYTESSFTLYRKDLFDAAGLKMPDNPTYDQIKDFAAKLTDKSKQQYGICLRGKPGWGENMAFLGTMINTYGGRWFDMDWKPQLTSAPWKKAIADYVALMTSYGPPGAAANGFNENQTLFSSGRCAMWIDATSAAGRVYDPKQSQVADKTGFTRAPVEVTPNGSSWSWSWNLAIPNSTKKLETAKSFVKWATSKAYVKTVGESEGWVAVPPGTRKSTYELPEYKKAAPFADTVLKAIMSADPSKPTKDPVPYTGVQFVAIPEFQSIGTVVGQQIAAALSGQQTVDAALEGAQKQVERDMTRAGYIK”, the “soluble on expression in E. coli” value was “not soluble”.
